Measured values reported in the nanobody polyreactivity screen of Harvey et al. (2022).

Assay: yeast display, Sf9 membrane polyspecificity reagent, FACS + sequencing; frameworks hold sequencing errors
How it was run: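 In a synthetic yeast display library (Saccharomyces cerevisiae BJ5465), nanobody expression was induced with galactose for 36–48 hours. FACS gates were set low and high (top ~1%) using anti-HA fluorescence for expression and streptavidin fluorescence for binding of the Sf9 membrane reagent. Each polyreactivity label is drawn from the gate of origin.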

| Sequence | polyreactivity (PSR sort gate) |
| --- | --- |
| QVQLVESGGGLVQAGGSLRLSCAASGRIFYYNTMGWYRQAPGKESELVAAISWSGGSTFYADSVKGRFTISRDNAKNTVYLQMNSLKPEDTAVYYCARYKLRSGRSGDHDDYWGQGTQVTVSS | high polyreactivity |
| QVQLVESGGGLVQAGGSLRLSCAASGRTFYRNAMGWYRQAPGKERELVAAISSDDSTNYADSVKGRFTISRDNAKNTVYLQMNSQKPEDTAVYYCNADYYYGYEYDYWGQGTQVTVSS | low polyreactivity |
| QVQLVESGGGLVQAGGSLRLSCAASGSIFRFYAMGWYRQAPGKERELVADISWRGGSTYYADSVTGRFTISRDNAKNTVYLQMNSLKPEDTAVYYCAADGPGKYDYWGQGTQVTVSS | high polyreactivity |
| QVQLVESGGGLVQAGGSLRLSCAASGRTFYSNAMGWYRQAPGKERELVAAITFGGGSTYYADSVKGRFTISRDNAKNTVYLQMNSLKPEDTAVYYCAAEGYKYRFYYWGQGTQVTVSS | low polyreactivity |
| QVQLVESGGGLVQAGGSLRLSCAASGGIIQNYVMGWYRQAPGKEREFVATISQRGGITYYADSVKGRFTISRDNAKNTVYLQMNSLKPEDTAVYYCAARSYYAVYYWGQGTQVTVSS | high polyreactivity |
| QVQLVESGGGLVQAGGSLRLSCAASGIIFRGNAMGWYRQAHGKERELVAAISSAGSTNYADSVKGRFTISRDNAKNTVYLQMNSLKPEVTAVFYCAKGSIKYHVTLRGRGYYWGQGTQVTVSS | low polyreactivity |
| QVQLVESGGGLVQAGGSLRLSCAASGNTFGKYGVGWYRQAPGKEREFVAAITSRGTSTYYADSVKGRFTISRDNEKNTVYLQMNSLKPEDTAVYYCNARPRYKYPRYDYWGQGTQVTVSS | high polyreactivity |
| QVQLVESGGGLVQAGGSLRLSCAASGFTFYHNALGWYRQAPGKERELVATITARGGRTYYADSVKGRFTISRDNAKNTVYLQMNSLKPEDTAVYYCNVKASRGYTYEYDYWGQGTQVTVSS | high polyreactivity |
| QVQLVESGGGLVQAGGSLRLSCAASGSTLYYYAMGWYRQAPGKERELVATITNGGSTNYADSVKGRFTISRDNAKNTVYLQMNSLKPEDTAVYYCNARRGYWGSHYWGQGTQVTVSS | high polyreactivity |
| QVQLVESGGGLVQAGGSHRLSCAASGRTFKLYAMGWYRQAPGKERELVAAITESGRSTYYADSVKGRFTFSRDNAKNTVYLQMNSLKPEDTAVYYCAALGIGSYRRYSGYDYWGQGTQVTVSS | low polyreactivity |
| QVQLVESGGGLVQAGGSLRLSCAASGSIFVKNAMGWYRQAPGKERELVAVITIRTATPYYADSVKGRFTISRDNAKNSVYLQMNSLKPEDTAVYYCAAAKRQRGYLQREGNYWGQGTQVTVSS | low polyreactivity |
| QVQLVESGGGLVQAGGSLRLSCAASGYIFKSYVMGWNRQEPGKESELVAAITWSGGSTYYADSVKGRFTISRDNAKNTVYLQMNSLKPEDTAVYYCAAYRRRYRTTYDYWGQGTQVTVSS | high polyreactivity |
| QVQIVESGGALVQAGGSLSLSCAASRSTFYRNDMGWYRQAPGKEREFVAAISFRGGGTYADSVKGRFTISRDNAKITVYLQMNSLKPEDTAVYYCAADHLSYRRRYEYWGQGTQVTVSS | low polyreactivity |
| QVQLVESGGGLVQAGGSLRLSCAASGRIFYYNAMGWYRQAPGKERELVAAITSVGSTNYADSVKGSFTISRDNAKNTVYLQMNSLKPEDTAVYYCARASAWYVTLVGKYTKYDYWGQGTQVTVSS | low polyreactivity |
| QVQLVESGGGLVQAGGSLRLSCAASGSTLYRNGMGWYRQAPGKEMEFVAAISWSGASTYYADSVKGRFTISRDNAKNTVYLQMNSLKPEDTAVYYCNARGPTVYETHNYWGQGTQVTVSS | low polyreactivity |
| QVQLVESGGGLVQAGGSLRLSCAASGSTFEANAMGWYRQAPGKERELVAVITWTGGSTYYADSVKGRFTISRDNAKNTVYLQMNSLKPEDTAVYYCAADGVVPGRFFWPAHEYDYWGQGTQVTVSS | low polyreactivity |
| QVQLAESGGGLVQAGGSLRLSCAASGIIFYFYAMGWYRQAPGKERELVAAINSSSGRTYYADSVKGRFTISRDNAKNSVYLQMNSLKPEDTAVYYCAAYYYGSYDGTPYDYWGQGTQVTVSS | low polyreactivity |
| QVQLVESGGGLVQAGGSLRLSCHASGSTFTFNAMGWYRQAPGKERELVADITSGGRTNYADSVKGRFTISRDNAKNTVYLQMNSLKPEDTAVYYCAARWSAHEYPGYDSWGQGTQVTVSS | low polyreactivity |
| QVQLVESGGGLVQAGGSLRLSCAASGRILDYNAMGWYIQAPGKERELVAAITLNGGGTYYADSVKGRFTISRDNAKNSVYLQMNSLKPEDTAVYYCNADYRRYPEFDYWGQGTHVTVSS | high polyreactivity |
| QVQLVESGGGLVQAGGSIRLSCAASGRIFWGNGMGWYRQAPGKEREFVAAISKSGGSTYYPDSVKGRFTISRDNAKNTVYLQMNSLKPEDTAVYYCAARAPYSYSGYGYWGQGTQVTVSS | high polyreactivity |
| QVQLVESGGGLVQAGGSLRLSCAASGSIFDSYAMGWYRQAPGKERELVAAISRIGGTTYYADSVKGRFTISRDNAKNTVYLQMNTLKPEDTAVYYCAAGPLLPRYSQYGYWGLGTQVTVSS | low polyreactivity |
| QVQLVESGGGLVQAGGSLRLSCAASGRTFWNAMGWYRQEPGKERELVATITSGGITNYADSVKGRFTISRDNAKNTVYLQMNSLKPEDTAVYYCAARPYTWRNFRPSDYWGQGTQVTVSS | high polyreactivity |
| QVQLVESGGGLVQAGGSLRLSCAASGSTFGPNTMGWYRQAPGKERELVAAITSTGSTYYADSVKGRFTISRDNGKNTVYFEMNILLPEDTAVYYCAARRYYGVYYAFYYWGQGTQVTVSS | high polyreactivity |
| QVQLVESGGGLVQAGGSLRLSCAASGSTFYRYAMGWYRQAPGKERELVASLTGSGGRTYYADSVKGRFTISRDNAKNTVYLQMNSLKPEDTAVYYCAARLYVRSVIGNAIVKYDYWGQGTQVTVSS | high polyreactivity |
| QVQLVESGGGLVQAGGSLRLSCAASGSTISFYAMGWYRQAPGKERELVAAISRSGGSTFYADSVKGRFTISRDNAKNTVYLQMNSLKPEDTAVYYCAAYGGMQSRYYYWGQGTQVTVSS | high polyreactivity |
| QVQLVESGGGLVQAGGSLRLSCAASGSTFLYNAMGWYRQAPGKERELVAAISTTGARTNYADSVKGRFTISRDNAKNTVYLQMNSLKPEDTAVYYCKDRRGHYWGQGTQVTVSS | high polyreactivity |
| QVQLVESGGGLVQAGGTLRLSCAASGLIFGRNAMGWYRQAPGKEREFVATYADSVKGRFTISRYNAKNTVYLQMNSLKPEDTAVYYCATRFVWPSYGYYVQGRFDSWGQGTQVTVSS | low polyreactivity |
| QVQLVESGGGLVQAGGSLRLSCAASGFIFRYYTMGWYRQAPGKERELVAAITSGGSTTYADSVKGRFTISRDNAKNTVYFQMNSLKPEDTAVYYCNTAYWYSLYDYWGQGTQVTVSS | high polyreactivity |
| QVQLVESGGGLVQAGGSLRLSCAASGFNFLGNAMGWYRQAPGKERELVAAISSGGSTYADSVKGRFTISRDNAKNTVYLQMISLKPEDTAVYYCAVDRAFRAQNYHEYEYWGQGTQVTVSS | low polyreactivity |
| QVQLVESGGGLVQAGGSLRLSWAASGSTFAWYAMGWYRQAPGKDRELVATISSGGSTYYADSVKGRFTISRDNAKNTVYLQMNSLKTEDTAVYYCAADYLTPWVYWFSYGLDYWGQGTQVTVSS | low polyreactivity |
